Results published in FireProtDB (doi:10.1016/s0006-3495(99)76955-9).

B1: Azurin, P00282 (parent)
chain: MLRKLAAVSLLSLLSAPLLAAECSVDIQGNDQMQFNTNAITVDKSCKQFTVNLSHPGNLPKNVMGHNWVLSTAADMQGVVTDGMASGLDKDYLKPDDSRVIAHTKLIGSGEKDSVTFDVSKLKEGEQYMFFCTFPGHSALMKGTLTLK

Variants of: B1
Details: Pseudomonas aeruginosa (strain ATCC 15692 / DSM 22644 / CIP 104116 / JCM 14847 / LMG 12228 / 1C / PRS 101 / PAO1); pH 7.03; 20 °C; Thermal; DSC; phosphate buffer 10 mM; sodium chloride 40 microM; reversible: no; structure 5AZU; whole UniProt chain shown
With MLRKLAAVSLLSLLSAPLLAAEASVDIQGNDQMQFNTNAITVDKSAKQFTVNLSHPGNLPKNVMGHNWVLSTAADMQGVVTDGMASGLDKDYLKPDDSRVIAHTKLIGSGEKDSVTFDVSKLKEGEQYMFFCTFPGHSALMKGTLTLK [C23A C46A] the “unfolding enthalpy (calorimetric)” value was 16 kcal/mol and the unfolding free energy was 7.79 kcal/mol.
